Experimental findings from US5434068 are described below.

For the data set, the system named is BglII restriction endonuclease (R.BglII) (Bacillus globigii). Briefly: cleavage_in_vitro. Particulars: nonspecific nicking test; 80 units, 4 h, 37 C, 10 mM MgCl2.

The substance phiX174 RFI DNA displayed an activity (% converted to RFII) of 10.
